Test results taken from publication PMC9482650, “Quantitative fragmentomics allow affinity mapping of interactomes” (Nature Communications, 2022).

T1: CARD11, Q9BXL7
T1 sequence (Q9BXL7 662-765, limits assumed, looked up): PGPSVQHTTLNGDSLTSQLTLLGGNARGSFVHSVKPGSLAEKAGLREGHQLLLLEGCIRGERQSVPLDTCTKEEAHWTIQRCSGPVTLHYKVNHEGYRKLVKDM

T2: GRIP1_4, Q9Y3R0
T2 sequence (Q9Y3R0 467-571, limits assumed, looked up): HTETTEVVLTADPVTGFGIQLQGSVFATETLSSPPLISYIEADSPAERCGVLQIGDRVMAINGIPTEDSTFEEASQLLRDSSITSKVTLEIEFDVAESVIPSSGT

T3: LIN7C, Q9NUP9
T3 sequence (Q9NUP9 88-185, limits assumed, looked up): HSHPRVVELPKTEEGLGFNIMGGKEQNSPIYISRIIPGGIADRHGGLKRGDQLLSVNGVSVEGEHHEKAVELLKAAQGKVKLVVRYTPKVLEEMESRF

T4: MPDZ_12, O75970
T4 sequence (O75970 1857-1958, limits assumed, looked up): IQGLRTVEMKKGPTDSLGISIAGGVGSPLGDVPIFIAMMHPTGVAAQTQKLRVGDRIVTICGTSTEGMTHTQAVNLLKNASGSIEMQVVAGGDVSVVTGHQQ

T5: PARD3B_1, Q8TEW8
T5 sequence (Q8TEW8 196-299, limits assumed, looked up): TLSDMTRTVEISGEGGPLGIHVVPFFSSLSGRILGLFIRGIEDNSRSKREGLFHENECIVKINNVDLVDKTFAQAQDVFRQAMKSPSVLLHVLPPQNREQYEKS

T6: RHPN1, Q8TCX5
T6 sequence (Q8TCX5 508-602, limits assumed, looked up): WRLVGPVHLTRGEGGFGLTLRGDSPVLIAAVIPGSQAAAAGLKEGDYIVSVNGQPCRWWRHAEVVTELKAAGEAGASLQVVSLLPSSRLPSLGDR

T7: SHANK1, Q9Y566
T7 sequence (Q9Y566 658-767, limits assumed, looked up): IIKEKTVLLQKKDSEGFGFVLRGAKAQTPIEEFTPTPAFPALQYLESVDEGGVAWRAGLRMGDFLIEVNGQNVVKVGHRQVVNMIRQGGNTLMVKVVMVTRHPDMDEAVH

T8: SIPA1L2, Q9P2F8
T8 sequence (Q9P2F8 945-1036, limits assumed, looked up): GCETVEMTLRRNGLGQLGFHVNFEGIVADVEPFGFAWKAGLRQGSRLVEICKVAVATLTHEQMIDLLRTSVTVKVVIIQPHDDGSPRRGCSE


Key:
Experiment in all cases: holdup assay
Set-up in all cases: key: below the threshold = too weak to quantify, mostly under pKd 3.1 to 4
Settings in all cases: plain residues with an end cap or a label only (N-terminal biotin on a linker: ado-ado)
[1] = biological target: T1, CARD11, Q9BXL7
[2] = biological target: DLG1_3, Q12959
Sequence of DLG1_3, Q12959 (Q12959 457-571): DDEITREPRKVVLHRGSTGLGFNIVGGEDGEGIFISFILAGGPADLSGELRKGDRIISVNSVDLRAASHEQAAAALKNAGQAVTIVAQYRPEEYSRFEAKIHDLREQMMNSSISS

[3] = biological target: DLG4_1, P78352
Sequence of DLG4_1, P78352 (P78352 62-152): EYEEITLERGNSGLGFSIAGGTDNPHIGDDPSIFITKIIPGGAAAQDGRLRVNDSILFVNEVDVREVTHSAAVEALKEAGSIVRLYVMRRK

[4] = biological target: FRMPD2_2, Q68DX3
Sequence of FRMPD2_2, Q68DX3 (Q68DX3 944-1038): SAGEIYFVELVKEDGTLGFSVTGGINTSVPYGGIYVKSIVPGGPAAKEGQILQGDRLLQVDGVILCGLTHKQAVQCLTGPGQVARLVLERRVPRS

[5] = biological target: FRMPD4, Q14CM0
Sequence of FRMPD4, Q14CM0 (Q14CM0 67-160): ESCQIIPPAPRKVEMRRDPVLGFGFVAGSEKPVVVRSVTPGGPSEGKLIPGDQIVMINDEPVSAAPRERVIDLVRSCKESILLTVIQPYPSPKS

[6] = biological target: GORASP1, Q9BQQ3
Sequence of GORASP1, Q9BQQ3 (Q9BQQ3 1-208): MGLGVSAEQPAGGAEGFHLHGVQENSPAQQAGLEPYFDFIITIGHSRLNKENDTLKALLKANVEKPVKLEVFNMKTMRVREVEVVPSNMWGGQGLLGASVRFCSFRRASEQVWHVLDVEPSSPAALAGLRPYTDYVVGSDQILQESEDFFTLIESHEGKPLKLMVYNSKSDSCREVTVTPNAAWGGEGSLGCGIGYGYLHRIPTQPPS

[7] = biological target: GRID2IP_2, A4D2P6
Sequence of GRID2IP_2, A4D2P6 (A4D2P6 272-370): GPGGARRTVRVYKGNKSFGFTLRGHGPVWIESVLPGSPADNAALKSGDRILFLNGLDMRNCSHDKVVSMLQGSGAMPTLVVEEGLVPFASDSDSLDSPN

[8] = biological target: T2, GRIP1_4, Q9Y3R0
[9] = biological target: GRIP2_4, Q9C0E4
Sequence of GRIP2_4, Q9C0E4 (Q9C0E4 446-548): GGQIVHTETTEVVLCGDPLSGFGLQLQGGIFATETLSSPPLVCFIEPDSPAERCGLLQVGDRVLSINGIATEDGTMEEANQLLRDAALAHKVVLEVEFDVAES

[10] = biological target: HTRA2, O43464
Sequence of HTRA2, O43464 (O43464 355-458): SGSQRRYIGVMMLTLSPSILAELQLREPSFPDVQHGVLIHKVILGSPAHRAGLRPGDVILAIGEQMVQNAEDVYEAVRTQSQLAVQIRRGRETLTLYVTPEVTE

[11] = biological target: Inadl_1, Q8NI35
Sequence of Inadl_1, Q8NI35 (Q8NI35 113-229): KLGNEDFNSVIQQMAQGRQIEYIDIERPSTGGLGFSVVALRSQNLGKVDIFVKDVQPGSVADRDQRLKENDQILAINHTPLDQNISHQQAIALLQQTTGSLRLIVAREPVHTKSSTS

[12] = biological target: Inadl_2, Q8NI35
Sequence of Inadl_2, Q8NI35 (Q8NI35 238-335): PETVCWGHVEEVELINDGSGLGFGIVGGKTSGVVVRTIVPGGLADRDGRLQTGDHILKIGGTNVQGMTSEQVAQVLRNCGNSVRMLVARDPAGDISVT

[13] = biological target: Inadl_6, Q8NI35
Sequence of Inadl_6, Q8NI35 (Q8NI35 1058-1167): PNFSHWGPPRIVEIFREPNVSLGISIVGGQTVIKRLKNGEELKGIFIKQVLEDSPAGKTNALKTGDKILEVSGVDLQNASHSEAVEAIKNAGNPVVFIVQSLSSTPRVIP

[14] = biological target: LDB3, O75112
Sequence of LDB3, O75112 (O75112 1-94): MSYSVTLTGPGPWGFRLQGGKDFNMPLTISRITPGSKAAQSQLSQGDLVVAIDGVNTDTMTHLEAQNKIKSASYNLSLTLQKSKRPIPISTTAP

[15] = biological target: T3, LIN7C, Q9NUP9
[16] = biological target: LNX1_3, Q8TBB1
Sequence of LNX1_3, Q8TBB1 (Q8TBB1 500-596): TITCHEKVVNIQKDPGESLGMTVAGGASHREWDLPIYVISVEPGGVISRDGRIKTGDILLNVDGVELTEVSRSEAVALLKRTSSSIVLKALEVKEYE

[17] = biological target: MAGI2_2, Q86UL8
Sequence of MAGI2_2, Q86UL8 (Q86UL8 410-522): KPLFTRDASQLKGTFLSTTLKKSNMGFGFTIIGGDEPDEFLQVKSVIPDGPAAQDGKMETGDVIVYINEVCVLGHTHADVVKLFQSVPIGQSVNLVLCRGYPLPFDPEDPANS

[18] = biological target: MAGI2_6, Q86UL8
Sequence of MAGI2_6, Q86UL8 (Q86UL8 1141-1229): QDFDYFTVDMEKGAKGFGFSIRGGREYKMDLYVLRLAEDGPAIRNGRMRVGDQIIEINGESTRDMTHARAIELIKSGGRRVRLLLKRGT

[19] = biological target: T4, MPDZ_12, O75970
[20] = biological target: NHERF2_2, Q15599
Sequence of NHERF2_2, Q15599 (Q15599 142-238): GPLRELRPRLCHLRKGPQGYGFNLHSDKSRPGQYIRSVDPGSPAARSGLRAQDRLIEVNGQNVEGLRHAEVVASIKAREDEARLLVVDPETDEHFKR

[21] = biological target: NHERF4_1, Q86UT5-2
Sequence of NHERF4_1, Q86UT5-2 (Q86UT5 other isoform, or with tags, fused parts or gaps): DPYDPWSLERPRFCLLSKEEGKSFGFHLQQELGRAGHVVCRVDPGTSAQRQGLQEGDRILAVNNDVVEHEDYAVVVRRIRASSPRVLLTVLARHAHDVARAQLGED

[22] = biological target: NHERF4_4, Q86UT5
Sequence of NHERF4_4, Q86UT5 (Q86UT5 464-550): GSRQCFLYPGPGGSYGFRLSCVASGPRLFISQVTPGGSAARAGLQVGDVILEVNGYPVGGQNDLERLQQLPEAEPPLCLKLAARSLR

[23] = biological target: T5, PARD3B_1, Q8TEW8
[24] = biological target: PTPN3, P26045
Sequence of PTPN3, P26045 (P26045 505-587): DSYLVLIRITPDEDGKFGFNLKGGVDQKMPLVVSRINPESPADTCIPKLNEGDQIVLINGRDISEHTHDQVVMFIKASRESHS

[25] = biological target: T6, RHPN1, Q8TCX5
[26] = biological target: SCRIB_3, Q14160
Sequence of SCRIB_3, Q14160 (Q14160 999-1103): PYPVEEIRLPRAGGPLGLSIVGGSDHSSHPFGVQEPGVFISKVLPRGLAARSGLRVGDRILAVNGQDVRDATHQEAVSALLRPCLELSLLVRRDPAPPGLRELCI

[27] = biological target: T7, SHANK1, Q9Y566
[28] = biological target: T8, SIPA1L2, Q9P2F8
[29] = biological target: SNX27, Q96L92

Binder | pKd [1] | pKd [2] | pKd [3] | pKd [4] | pKd [5] | pKd [6] | pKd [7] | pKd [8] | pKd [9] | pKd [10] | pKd [11] | pKd [12] | pKd [13] | pKd [14] | pKd [15] | pKd [16] | pKd [17] | pKd [18] | pKd [19] | pKd [20] | also measured
KIEDVEITLV [FCHSD2, O94868] | below the threshold | 3.59 | 3.89 | 4.76 | below the threshold | 3.91 | 4.63 | below the threshold | below the threshold | 3.93 | below the threshold | 4.3 | 4.23 | below the threshold | 4.11 | below the threshold | 3.77 | 4.24 | below the threshold | 3.86 | pKd [21]: 3.73; pKd [22]: below the threshold; pKd [23]: 3.91; pKd [24]: 3.5; pKd [25]: 4.76; pKd [26]: 3.48; pKd [27]: 4.1; pKd [28]: below the threshold; pKd [29]: 5.01
STYCDYTIEI [FAM71C, Q8NEG0] | below the threshold | below the threshold | below the threshold | below the threshold | below the threshold | 4.72 | below the threshold | below the threshold | below the threshold | 3.85 | 3.56 | 3.51 | below the threshold | below the threshold | below the threshold | below the threshold | below the threshold | below the threshold | below the threshold | below the threshold | pKd [21]: below the threshold; pKd [22]: 4.68; pKd [23]: 4.1; pKd [24]: 4.16; pKd [25]: 3.47; pKd [26]: 4.06; pKd [27]: below the threshold; pKd [28]: below the threshold; pKd [29]: 3.56

Second part, led by results:

pKd [1] | pKd [2] | pKd [3] | pKd [4] | pKd [5] | pKd [6] | pKd [7] | pKd [8] | pKd [9] | pKd [10] | pKd [11] | pKd [12] | pKd [13] | pKd [14] | pKd [15] | pKd [16] | pKd [17] | pKd [18] | pKd [19] | pKd [20] | Binder | also measured
below the threshold | below the threshold | below the threshold | below the threshold | below the threshold | 4.15 | below the threshold | below the threshold | below the threshold | 3.72 | below the threshold | below the threshold | below the threshold | below the threshold | below the threshold | below the threshold | below the threshold | below the threshold | 3.56 | below the threshold | MQILSKPEFI [NPSR1, Q6W5P4] | pKd [21]: 3.62; pKd [22]: below the threshold; pKd [23]: 4.09; pKd [24]: 3.94; pKd [25]: below the threshold; pKd [26]: 3.59; pKd [27]: below the threshold; pKd [28]: below the threshold; pKd [29]: below the threshold
below the threshold | below the threshold | 3.88 | below the threshold | below the threshold | below the threshold | below the threshold | below the threshold | below the threshold | below the threshold | below the threshold | below the threshold | below the threshold | below the threshold | 3.93 | below the threshold | below the threshold | below the threshold | below the threshold | below the threshold | KEKASTETEC [TRPM1, Q7Z4N2] | pKd [21]: 3.66; pKd [22]: below the threshold; pKd [23]: 3.97; pKd [24]: 4.9; pKd [25]: below the threshold; pKd [26]: 4.23; pKd [27]: below the threshold; pKd [28]: below the threshold; pKd [29]: 4.53
below the threshold | below the threshold | below the threshold | below the threshold | below the threshold | below the threshold | below the threshold | below the threshold | below the threshold | below the threshold | below the threshold | below the threshold | below the threshold | below the threshold | below the threshold | below the threshold | below the threshold | below the threshold | below the threshold | 3.7 | QKASRNESTF [POLR1D, P0DPB6] | pKd [21]: below the threshold; pKd [22]: 3.81; pKd [23]: 4.05; pKd [24]: 4.62; pKd [25]: below the threshold; pKd [26]: 4.12; pKd [27]: below the threshold; pKd [28]: below the threshold; pKd [29]: 4.29
